Measurements taken from patent publication US20160376353A1 (DECIMMUNE THERAPEUTICS, published 2016).
Substitutions are numbered along the chain they refer to. Names and notes keep the numbering of the source. Values belong to the binder of their own block, whether it stands above or below them. Ends that are not written are not given here.

Columns and labels:
[1] = target: T1, Biotin-labeled N2 peptide (also: biotin label, position not given here); assay: SPR (BIACORE X100), biotin-N2 peptide on NeutrAvidin chip, antibody in solution; steady state affinity
T1 construct: also called immobilized N2
T1 peptide: LMKNMDPLNDNV
Text: (§1) The humanized variable regions were cloned into a vector containing wild type human IgG1, human IgG1 containing a mutation at amino acid 297 (Asn 297 to Q297), human IgG4 containing a mutation at amino acid 228 (serine to proline) and human kappa light chain. Each antibody (heavy and light) combination was expressed by transient co-transfection in 293A cells (in the presence of low Ig serum). The antibody containing supernatants were collected and analyzed for binding to the N2 peptide by ELISA and BIACORE™ X100 system. All experiments were performed using a BIACORE™ X100 system. For antibody capture experiments, a CM5 chip was prepared by 10 ul/minute injection of EDC/NHS (N-ethyl-N′-(3-dimethylaminopropyl) carbodiimide (EDC), N-hydroxysuccinimide (NHS) for 7 minutes, followed by a 10 ul/minute injection of anti-human Fc (GE Lifesciences) at a concentration of 25 ug/ml in sodium acetate at pH 5 for 3 minutes. Ethanolamine-HCl was injected for 7 minutes at 10 ul/minute. The chimeric or humanized antibodies were captured onto flow cell 2 and N2 peptide at varying concentrations was flowed over flow cells 1 and 2 at a rate of 30 ul/minute with a contact time of 120 seconds and a dissociation period of 120 seconds. Complete removal of captured antibody was accomplished by regeneration with 3M MgCl2 for 30 seconds at a flow rate of 10 ul/minute. For peptide immobilized experiments, a CM5 chip was prepared by 10 ul/minute injection of EDC/NHS (N-ethyl-N′-(3-dimethylaminopropyl) carbodiimide (EDC), N-hydroxysuccinimide (NHS) for 7 minutes, followed by a 10 ul/minute injection of NEUTRAVIDIN® protein (ThermoFisher Pierce) at a concentration of 5 ug/ml in sodium acetate, pH 5 to an immobilization response of 100-200RU. Ethanolamine-HCl was injected for 7 minutes at 10 ul/minute. Biotin-labeled N2 peptide was captured on flow channel 2 with the goal of an experimental Rmax of about 50-100RU. Purified chimeric or humanized antibodies were flowed over both flow channels at a rate of 30 ul/min for a contact time of 120 seconds and allowed to dissociate for 600 seconds.

[2] = target: T1, Biotin-labeled N2 peptide; assay: SPR (BIACORE X100), biotin-N2 peptide on NeutrAvidin chip, antibody in solution; upper end of the printed range 1-11
Text: (§2) The remaining sequences represent the germline sequences with the highest homology that encode productive antibody. All of the humanized sequences maintain the murine 21G6 CDR regions which are shown inside the boxes in FIG. 1. The humanized variable regions were cloned into a vector containing wild type human IgG1, human IgG1 containing a mutation at amino acid 297 (Asn 297 to Q297), human IgG4 containing a mutation at amino acid 228 (serine to proline) and human kappa light chain. Each antibody (heavy and light) combination was expressed by transient co-transfection in 293A cells (in the presence of low Ig serum). The antibody containing supernatants were collected and analyzed for binding to the N2 peptide by ELISA and BIACORE™ X100 system. All experiments were performed using a BIACORE™ X100 system. […]

[3] = target: T2, N2 peptide (non-muscle myosin neo-epitope N2 12mer sequence); assay: SPR (BIACORE X100), immobilized antibody, N2 peptide in solution; lower end of the printed range 4-6 uM
T2 construct: also called N2 12-mer peptide
T2 peptide: LMKNMDPLNDNV
Text: as §2

[4] = target: T1, Biotin-labeled N2 peptide; assay: SPR (BIACORE X100), biotin-N2 peptide on NeutrAvidin chip, antibody in solution; kd/ka (monovalent)
Text: as §1, with “The remaining sequences represent the germline sequences with the highest homology that encode productive antibody. All of the humanized sequences maintain the murine 21G6 CDR regions which are shown inside the boxes in FIG. 1. The humanized” for “The humanized”

[5] = target: T1, Biotin-labeled N2 peptide; assay: SPR (BIACORE X100), biotin-N2 peptide on NeutrAvidin chip, antibody in solution; upper end of the printed range 5-53
Text: as §2

[6] = target: T2, N2 peptide (non-muscle myosin …); assay: SPR (BIACORE X100), antibody captured by anti-human Fc, N2 peptide in solution
Text: as §1, with “The remaining sequences represent the germline sequences with the highest homology that encode productive antibody. All of the humanized sequences maintain the murine 21G6 CDR regions which are shown inside the boxes in FIG. 1. The humanized” for “The humanized”

[7] = target: T1, Biotin-labeled N2 peptide; assay: SPR (BIACORE X100), biotin-N2 peptide on NeutrAvidin chip, antibody in solution; upper end of the printed range 7-10
Text: as §2

[8] = target: T1, Biotin-labeled N2 peptide; assay: SPR (BIACORE X100), biotin-N2 peptide on NeutrAvidin chip, antibody in solution; upper end of the printed range 7-19
Text: as §2

[9] = target: T1, Biotin-labeled N2 peptide; assay: SPR (BIACORE X100), biotin-N2 peptide on NeutrAvidin chip, antibody in solution; upper end of the printed range 2.0-3.2
Text: as §2

[10] = target: T1, Biotin-labeled N2 peptide; assay: SPR (BIACORE X100), biotin-N2 peptide on NeutrAvidin chip, antibody in solution; upper end of the printed range 8.6-9.1
Text: as §2

[11] = target: T1, Biotin-labeled N2 peptide; assay: SPR (BIACORE X100), biotin-N2 peptide on NeutrAvidin chip, antibody in solution; upper end of the printed range 3-6.5
Text: as §2

[12] = target: T1, Biotin-labeled N2 peptide; assay: SPR (BIACORE X100), biotin-N2 peptide on NeutrAvidin chip, antibody in solution; upper end of the printed range 2.0-5.2
Text: as §2

[13] = target: T1, Biotin-labeled N2 peptide; assay: SPR (BIACORE X100), biotin-N2 peptide on NeutrAvidin chip, antibody in solution; upper end of the printed range 1.5-4.3
Text: as §2

[14] = target: T1, Biotin-labeled N2 peptide; assay: SPR (BIACORE X100), biotin-N2 peptide on NeutrAvidin chip, antibody in solution; upper end of the printed range 4.3-6.5
Text: as §2

B3: H2-21G6 / L2-21G6 (Table 2, constant region not stated) (antibody, V domains shown)
VH: QVQLVQSGAEVKKPGASVKVSCKASGYTFTSYYMYWVRQAPGQGLEWIGGINPSNGGTNFNEKFKSKATMTVDKSTSTAYMELRSLRSDDSAVYYCTRWGYDREWFAYWGQGTLVTVSS
VL: DIVMTQSPLSLPVTPGEPASISCRSSKSLLHSNGNTYLYWFLQKPGQSPQLLIYRMSNLASGVPDRFSGSGSGTDFTLKISRVEAEDVGVYYCMQHLEYPFTFGQGTKLEIKR
notes: human kappa light chain; also called H2/L2
Kd [1]: 240 nM | kon [9]: 32000 M⁻¹ s⁻¹ | koff [10]: 0.0091 s⁻¹ | Kd [4]: 280 to 420 nM

B4: H3-21G6 / L1-21G6 (Table 2, constant region not stated) (antibody, V domains shown)
VH: B3 VH with A16S, M70I, R84S, D89E, S91T
VL: DIVMTQSPATLSVSPGERATISCRSSKSLLHSNGNTYLYWFQQKPGQPPKVLIYRMSNLASGVPARFSGSGSGTDFTLTISSVEPEDFATYYCMQHLEYPFTFGGGTKLEIKR
notes: human kappa light chain; also called H3/L1
Kd [1]: 280 nM | koff [11]: 0.0065 s⁻¹ | kon [12]: 52000 M⁻¹ s⁻¹ | Kd [4]: 300 nM

B5: H1-21G6 / L1-21G6 (Table 2, constant region not stated) (antibody, V domains shown)
VH: B3 VH with K12V, V20L, R38K, M70L, T76A, R84S, D89E, S91T
VL: B4 VL
notes: human kappa light chain; also called H1/L1
Kd [1]: 320 nM | Kd [4]: 100 to 430 nM | kon [13]: 43000 M⁻¹ s⁻¹ | koff [14]: 0.0065 s⁻¹

Second part, the binder after the results:

Kd [1]: 313 to 540 nM | kon [2]: 110000 M⁻¹ s⁻¹ | Kd [3]: 4000 to 6000 nM | Kd [4]: 200 to 400 nM | koff [5]: 0.053 s⁻¹
B1: Murine 21G6 antibody (antibody, V domains shown)
VH: QVQLQQPGAELVKPGASVKLSCKASGYTFTSYYMYWVKQRPGQGLEWIGGINPSNGGTNFNEKFKSKATLTVDKSSSTAYMQLSSLTSEDSAVYYCTRWGYDREWFAYWGQGTLVTVSA
VL: DIVMTQAAPSVPVTPGESVSISCRSSKSLLHSNGNTYLYWFLQRPGQSPQVLIYRMSNLASGVPDRFSGSGSGTAFTLRISRVEAEDVGVYYCMQHLEYPFTFGSGTKLEIKR
notes: also called m21G6

Kd [1]: 196 to 240 nM | Kd [6]: 5600 nM | Kd [4]: 100 to 200 nM | kon [7]: 100000 M⁻¹ s⁻¹ | koff [8]: 0.019 s⁻¹
B2: Chimeric 21G6, human heavy chain constant region IgG1 with Q297 mutation (antibody, V domains shown)
VH: B1 VH
VL: B1 VL
notes: Human IgG1 constant region with Asn 297 to Gln; also called ch21G6 N297Q
